Values belong to the binder of their own block, whether it stands above or below them. Square brackets hold non-standard residues; d marks the D form. Primed or numbered codes have the meaning given here. Side chains are listed from the residue outwards. Ends that are not written are not given here. * marks the point of attachment. DOTA = O=C(O)CN1CCN(CC(=O)O)CCN(CC(=O)*)CCN(CC(=O)O)CC1; Biotin = O=C1N[C@H]2[C@H](CS[C@H]2CCCCC(=O)*)N1; Butanoyl(4-(4-I-phenyl)) = O=C(CCCc1ccc(I)cc1)*; Butanoyl(4-(4-MePh)) = Cc1ccc(CCCC(=O)*)cc1; FB = fluorobenzaldehyde oxime; Folate = pteroic acid on Glu; PEG3′ = PEG3 spacer; PEG7′ = PEG7 spacer; AO = aminooxy
How the values were obtained:
[1] = target: FOLR1 human recombinant protein (human) (UniProt P15328); experiment: ELISA on FOLR1
human plasma proteins [2] = experiment: plasma protein binding, dialysis 4 h at 37 C, 2 µM, LC-MS/MS
[3] = target: mouse plasma proteins (CD-1 mouse); experiment: as above
[4] = target: FOLR1 human recombinant protein (human) (UniProt P15328); experiment: ELISA on FOLR1, linker screen
human plasma proteins [5] = experiment: plasma protein binding; measured on the FB form
[6] = target: mouse plasma proteins (CD-1 mouse); experiment: plasma protein binding; measured on the FB form

FOLR1 human recombinant protein (human), sequence (P15328 25-233 limits assumed): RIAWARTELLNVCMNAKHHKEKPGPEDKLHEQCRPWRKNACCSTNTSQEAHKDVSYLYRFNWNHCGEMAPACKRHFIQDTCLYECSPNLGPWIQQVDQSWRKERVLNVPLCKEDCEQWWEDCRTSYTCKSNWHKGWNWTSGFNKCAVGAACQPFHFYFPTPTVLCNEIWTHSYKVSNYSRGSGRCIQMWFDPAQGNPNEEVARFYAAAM

B3: Folate-PEG7-hshta (peptide)
peptide: {folate-PEG7′}-[dH][dS][dH][dT][dA]
modifications: triazole (positions not given here); also: triazole macrocycle via Pra and Az4, places not given here, biotin label, site not given here
EC50 [4]: 1 nM

B4: Fol-hshta-PEG3-Lys(DOTA) (compound #1189) (peptide)
peptide: folate-[dH][dS][dH][dT][dA][PEG3′]K(DOTA)-OH
modifications: triazole (positions not given here); not fully specified; printed as folate-hshta-PEG3-Lys(DOTA); numbers in words are those of the source; also: triazole macrocycle via Pra and Az4, places not given here
Plasma % Bound (human plasma proteins [2]): 46%
Plasma % Bound [3]: 29.5%

B6: Fol-hshta-PEG3-Lys(FB) (compound #2) (peptide)
peptide: folate-[dH][dS][dH][dT][dA][PEG3′]K([AO-FB])
modifications: triazole (positions not given here); numbers in words are those of the source; also: triazole macrocycle via Pra and Az4, places not given here
Plasma % Bound (human plasma proteins [5]): 43%
Plasma % Bound [6]: 20.2%
Plasma % Bound (human plasma proteins [2]): 43%
Plasma % Bound [3]: 20.2%

B7: Fol-hshta-Gly-Phe-Lys(AO) (compound #3303) (peptide)
peptide: folate-[dH][dS][dH][dT][dA]GFK(AO)
modifications: triazole (positions not given here); not fully specified; printed as Fol-hshta-Gly-Phe-Lys(AO); also: triazole macrocycle via Pra and Az4, places not given here
Plasma % Bound (human plasma proteins [5]): 81%
Plasma % Bound [6]: 75.5%

B8: Folate-deryt heterobiligand (construct not specified) (peptide)
peptide: [dD][dE][dR][dY][dT]
modifications: triazole (positions not given here); also: triazole macrocycle via Pra and Az4, places not given here, folate conjugated, linker and site not given here
EC50 [4]: 0.28 nM

B9: Folate-hshta-G-F-K(DOTA)-OH (Indi 7327, compound #7327) (peptide)
peptide: Folate-[dH][dS][dH][dT][dA]GFK(DOTA)-OH
modifications: not fully specified (bridges); printed as folate-hshta-Gly-Phe-Lys(DOTA); also: triazole macrocycle closed by Pra and Lys(N3)/Az4 flanking hshta, not in the given chain
Plasma % Bound (human plasma proteins [2]): 40.3%
Plasma % Bound [3]: 40.9%

B11: Fol-hshta-Lys(4-MPBA)-Gly-Phe-Lys(PEG3-DOTA) (compound #3302) (peptide)
peptide: [dH][dS][dH][dT][dA]KGFK([PEG3′-DOTA])
modifications: triazole (positions not given here); not fully specified (residue 6, N-terminus); also: triazole macrocycle via Pra and Az4, places not given here
Plasma % Bound (human plasma proteins [2]): 94.9%
Plasma % Bound [3]: 96.5%

B13: Fol-hshta-PEG3-Gly-Phe-Lys(DOTA) (compound #6307) (peptide)
peptide: folate-[dH][dS][dH][dT][dA][PEG3′]GFK(DOTA)
modifications: triazole (positions not given here); numbers in words are those of the source; also: triazole macrocycle via Pra and Az4, places not given here
Plasma % Bound (human plasma proteins [2]): 41.3%
Plasma % Bound [3]: 40.6%

B15: Folate-hshta-Lys(IPBA)-Gly-Phe-Lys(DOTA) (compound #1307) (peptide)
peptide: [dH][dS][dH][dT][dA]K(Butanoyl(4-(4-I-phenyl)))GFK(DOTA)
modifications: triazole (positions not given here); not fully specified (N-terminus); also: triazole macrocycle via Pra and Az4, places not given here
Plasma % Bound (human plasma proteins [2]): 99.5%
Plasma % Bound [3]: 99.6%

The next lines start with the values.

EC50 [1]: 10000 nM
B1: deryt (SEQ ID NO:20) PCC alone (peptide)
peptide: [dD][dE][dR][dY][dT]
modifications: triazole (positions not given here); also: flanked by Pra and Az4 joined by 1,2,3-triazole, sides not given here

Plasma % Bound (human plasma proteins [2]): 83.3%
Plasma % Bound [3]: 92.1%
B2: Folate-hshta-PEG3-Lys(MPBA)-Lys(DOTA) (compound #2809) (peptide)
peptide: [dH][dS][dH][dT][dA][PEG3′]K(Butanoyl(4-(4-MePh)))K(DOTA)-OH
modifications: triazole (positions not given here); not fully specified (N-terminus); printed as folate-hshta-PEG3-Lys(MPBA)-Lys(DOTA); numbers in words are those of the source; also: triazole macrocycle via Pra and Az4, places not given here

Plasma % Bound (human plasma proteins [2]): 98.3%
Plasma % Bound [3]: 96.3%
B5: Folate-hshta-Lys(MPBA)-Gly-Phe-Lys(DOTA) (compound #6305) (peptide)
peptide: [dH][dS][dH][dT][dA]K(Butanoyl(4-(4-MePh)))GFK(DOTA)-OH
modifications: triazole (positions not given here); not fully specified (N-terminus); also: triazole macrocycle via Pra and Az4, places not given here

EC50 [1]: 0.149 nM
B10: folate-kyeet Tz heterobiligand (peptide)
peptide: Biotin-[dK][dY][dE][dE][dT]
modifications: triazole (positions not given here); also: folate joined via PEG linker and triazole (Tz), site not placed, triazole macrocycle via Pra and Az4 flanking kyeet, not placed in chain

Plasma % Bound (human plasma proteins [2]): 97.3%
Plasma % Bound [3]: 97.1%
B12: Folate-hshta-Lys(IPBA)-M-V-Lys(DOTA) (compound #1306) (peptide)
peptide: folate-[dH][dS][dH][dT][dA]K(Butanoyl(4-(4-I-phenyl)))MVK(DOTA)-OH
modifications: triazole (positions not given here); not fully specified; also: triazole macrocycle via Pra and Az4, places not given here

EC50 [1]: 0.107 nM
B14: folate-hshta Tz heterobiligand (peptide)
peptide: Biotin-[dH][dS][dH][dT][dA]
modifications: triazole (positions not given here); also: triazole macrocycle via Pra and Az4, places not given here, folate joined through PEG linker and triazole, site not given here

From US20240053349A1
